Consider six variants from the supplement of paper PMC11908140.

B1: library; numbered along this chain (parent)
chain: MRKPRAAVGSGHRKQAASQEGRQKHAKNNSQAKPSACDGLARQPEEVVLQASVSSYHLFRDVAEVTAFRGSLLSWYDQEKRDLPWRRRAEDEMDLDRRAYAVWVSEVMLQQTQVATVINYYTGWMQKWPTLQDLASASLEEVNQLWAGLGYYSRGRRLQEGARKVVEELGGHMPRTAETLQQLLPGVGRYTAGAIASIAFGQATGVVDGNVARVLCRVRAIGADPSSTLVSQQLWGLAQQLVDPARPGDFNQAAMELGATVCTPQRPLCSQCPVESLCRARQRVEQEQLLASGSLSGSPDVEECAPNTGQCHLCLPPSEPWDQTLGVVNFPRKASRKPPREESSATCVLEQPGALGAQILLVQRPNSGLLAGLWEFPSVTWEPSEQLQRKALLQELQRWAGPLPATHLRHLGEVVHTFSHIKLTYQVYGLALEGQTPVTTVPPGARWLTQEEFHTAAVSTAMKKVFRVYQGQQPGTCMGSKRSQVSSPCSRKKPRMGQQVLDNFFRSHISTDAHSLNSAAQ

Variants of B1 are the subject of this data set. Briefly: 8OG:A repair function score (normalized; synonymous = 0, nonsense = -1) (normalized log-likelihood score); higher = more repair activity (WT-like). Conditions: with 8OG:A DNA repair reporter (GFP) in HEK-293 MUTYH KO cells. A digest of the protocol:
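With 10 pg/ml doxycycline, MUTYH knockout HEK-293 cells carrying lentiviral MUTYH cDNA NNN codon-scan libraries were co-transfected with mCherry and an 8OG:A GFP repair reporter. Viable mCherry+ cells were sorted into GFP+ (repair) and GFP− bins at 72 h, three replicates per tile, and tile amplicons were sequenced. Per-tile Rosace fitness scores were then normalized into a repair function score anchored on synonymous and nonsense distributions. Medians were fixed at 0 for synonymous and -1 for nonsense, excluding variants under 300 counts per million at the start.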
For the variant MRKPRAAVGSGHRKQAASQEGRQKHAKNNSQAKPSACDGLARQPEEVVLQASVSSYHLFRDVAEVTAFRGSLLSWYDQEKRDLPWRRRAEDEMDLDRRAYAVWVSEVMLQQTQVATVINYYTGWMQKWPTLQDLASASLEEVNQLWAGLGYYSRGRRLQEGARKVVEELGGHMPRTAETLQQLLPGVGRYTAGAIASIAFGQATGVVDGNVARVLCRVRAIGADPSSTLVSQQLWGLAQQLVDPARPGDFNQAAMELGATVCTPQRPLCSQCPVESLCRARQRVEQEQLLASGSLSGSPDVEECAPNQGQCHLCLPPSEPWDQTLGVVNFPRKASRKPPREESSATCVLEQPGALGAQILLVQRPNSGLLAGLWEFPSVTWEPSEQLQRKALLQELQRWAGPLPATHLRHLGEVVHTFSHIKLTYQVYGLALEGQTPVTTVPPGARWLTQEEFHTAAVSTAMKKVFRVYQGQQPGTCMGSKRSQVSSPCSRKKPRMGQQVLDNFFRSHISTDAHSLNSAAQ [T308Q], the “8OG:A repair function score” value is 0.0017.

For MRKPRAAVGSGHRKQAASQEGRQKHAKNNSQAKPSACDGLARQPEEVVLQASVSSYHLFRDVAEVTAFRGSLLSWYDQEKRDLPWRRRAEDEMDLDRRAYAVWVSEVMLQQTQVATVINYYTGWMQKWPTLQDLASASLEEVNQLWAGLGYYSRGRRLQEGARKVVEELGGHMPRTAETLQQLLPGVGRYTAGAIASIAFGQATGVVDGNVARVLCRVRAIGADPSSTLVSQQLWGLAQQLVDPARPGDFNQAAMELGATVCTPQRPLCSQCPVESLCRARQRVEQEQLLASGSLSGSPDVEECAPNWGQCHLCLPPSEPWDQTLGVVNFPRKASRKPPREESSATCVLEQPGALGAQILLVQRPNSGLLAGLWEFPSVTWEPSEQLQRKALLQELQRWAGPLPATHLRHLGEVVHTFSHIKLTYQVYGLALEGQTPVTTVPPGARWLTQEEFHTAAVSTAMKKVFRVYQGQQPGTCMGSKRSQVSSPCSRKKPRMGQQVLDNFFRSHISTDAHSLNSAAQ [T308W], the “8OG:A repair function score” value was 0.00192.

In the case of MRKPRAAVGSGHRKQAASQEGRQKHAKNNSQAKPSACDGLARQPEEVVLQASVSSYHLFRDVAEVTAFRGSLLSWYDQEKRDLPWRRRAEDEMDLDRRAYAVWVSEVMLQQTQVATVINYYTGWMQKWPTLQDLASASLEEVNQLWAGLGYYSRGRRLQEGARKVVEELGGHMPRTAETLQQLLPGVGRYTAGAIASIAFGQATGVVDGNVARVLCRVRAIGADPSSTLVSQQLWGLAQQLVDPARPGDFNQAAMELGATVCTPQRPLCSQCPVESLCRARQRVEQEQLLASGSLSGSPDVEECAPNVGQCHLCLPPSEPWDQTLGVVNFPRKASRKPPREESSATCVLEQPGALGAQILLVQRPNSGLLAGLWEFPSVTWEPSEQLQRKALLQELQRWAGPLPATHLRHLGEVVHTFSHIKLTYQVYGLALEGQTPVTTVPPGARWLTQEEFHTAAVSTAMKKVFRVYQGQQPGTCMGSKRSQVSSPCSRKKPRMGQQVLDNFFRSHISTDAHSLNSAAQ [T308V], the “8OG:A repair function score” value is -0.00366.

With MRKPRAAVGSGHRKQAASQEGRQKHAKNNSQAKPSACDGLARQPEEVVLQASVSSYHLFRDVAEVTAFRGSLLSWYDQEKRDLPWRRRAEDEMDLDRRAYAVWVSEVMLQQTQVATVINYYTGWMQKWPTLQDLASASLEEVNQLWAGLGYYSRGRRLQEGARKVVEELGGHMPRTAETLQQLLPGVGRYTAGAIASIAFGQATGVVDGNVARVLCRVRAIGADPSSTLVSQQLWGLAQQLVDPARPGDFNQAAMELGATVCTPQRPLCSQCPVESLCRARQRVEQEQLLASGSLSGSPDVEECAPNPGQCHLCLPPSEPWDQTLGVVNFPRKASRKPPREESSATCVLEQPGALGAQILLVQRPNSGLLAGLWEFPSVTWEPSEQLQRKALLQELQRWAGPLPATHLRHLGEVVHTFSHIKLTYQVYGLALEGQTPVTTVPPGARWLTQEEFHTAAVSTAMKKVFRVYQGQQPGTCMGSKRSQVSSPCSRKKPRMGQQVLDNFFRSHISTDAHSLNSAAQ [T308P], the “8OG:A repair function score” value was -0.0519.

As to MRKPRAAVGSGHRKQAASQEGRQKHAKNNSQAKPSACDGLARQPEEVVLQASVSSYHLFRDVAEVTAFRGSLLSWYDQEKRDLPWRRRAEDEMDLDRRAYAVWVSEVMLQQTQVATVINYYTGWMQKWPTLQDLASASLEEVNQLWAGLGYYSRGRRLQEGARKVVEELGGHMPRTAETLQQLLPGVGRYTAGAIASIAFGQATGVVDGNVARVLCRVRAIGADPSSTLVSQQLWGLAQQLVDPARPGDFNQAAMELGATVCTPQRPLCSQCPVESLCRARQRVEQEQLLASGSLSGSPDVEECAPNYGQCHLCLPPSEPWDQTLGVVNFPRKASRKPPREESSATCVLEQPGALGAQILLVQRPNSGLLAGLWEFPSVTWEPSEQLQRKALLQELQRWAGPLPATHLRHLGEVVHTFSHIKLTYQVYGLALEGQTPVTTVPPGARWLTQEEFHTAAVSTAMKKVFRVYQGQQPGTCMGSKRSQVSSPCSRKKPRMGQQVLDNFFRSHISTDAHSLNSAAQ [T308Y], the “8OG:A repair function score” value was -0.0509.

Consider MRKPRAAVGSGHRKQAASQEGRQKHAKNNSQAKPSACDGLARQPEEVVLQASVSSYHLFRDVAEVTAFRGSLLSWYDQEKRDLPWRRRAEDEMDLDRRAYAVWVSEVMLQQTQVATVINYYTGWMQKWPTLQDLASASLEEVNQLWAGLGYYSRGRRLQEGARKVVEELGGHMPRTAETLQQLLPGVGRYTAGAIASIAFGQATGVVDGNVARVLCRVRAIGADPSSTLVSQQLWGLAQQLVDPARPGDFNQAAMELGATVCTPQRPLCSQCPVESLCRARQRVEQEQLLASGSLSGSPDVEECAPNRGQCHLCLPPSEPWDQTLGVVNFPRKASRKPPREESSATCVLEQPGALGAQILLVQRPNSGLLAGLWEFPSVTWEPSEQLQRKALLQELQRWAGPLPATHLRHLGEVVHTFSHIKLTYQVYGLALEGQTPVTTVPPGARWLTQEEFHTAAVSTAMKKVFRVYQGQQPGTCMGSKRSQVSSPCSRKKPRMGQQVLDNFFRSHISTDAHSLNSAAQ [T308R], for which the “8OG:A repair function score” value amounted to 0.0174.
